Measured values published in publication PMC6927765.
Read-outs that look alike come from different tables or passages of the source.

B1: Mouse Fc gamma receptor FCGR1 (receptor)
chain: EVVNATKAVITLQPPWVSIFQKENVTLWCEGPHLPGDSSTQWFINGTAVQISTPSYSIPEASFQDSGEYRCQIGSSMPSDPVQLQIHNDWLLLQASRRVLTEGEPLALRCHGWKNKLVYNVVFYRNGKSFQFSSDSEVAILKTNLSHSGIYHCSGTGRHRYTSAGVSITVKELFTTPVLRASVSSPFPEGSLVTLNCETNLLLQRPGLQLHFSFYVGSKILEYRNTSSEYHIARAEREDAGFYWCEVATEDSSVLKRSPELELQVLGPQSSAPVWFHILFYLSVGIMFSLNTVLYVKIHRLQREKKYNLEVPLVSEQGKKANSFQQVRSDGVYEEVTATASQTTPKEAPDGPRSSVGDCGPEQPEPLPPSDSTGAQTSQS
B2: Mouse Fc gamma receptor FCGR3 (receptor)
chain: ALPKAVVKLDPPWIQVLKEDMVTLMCEGTHNPGNSSTQWFHNGRSIRSQVQASYTFKATVNDSGEYRCQMEQTRLSDPVDLGVISDWLLLQTPQRVFLEGETITLRCHSWRNKLLNRISFFHNEKSVRYHHYKSNFSIPKANHSHSGDYYCKGSLGSTQHQSKPVTITVQDPATTSSISLVWYHTAFSLVMCLLFAVDTGLYFYVRRNLQTPREYWRKSLSIRKHQAPQDK
B3: Mouse Fc gamma receptor FCGR4 (receptor)
chain: GLQKAVVNLDPKWVRVLEEDSVTLRCQGTFSPEDNSIKWFHNESLIPHQDANYVIQSARVKDSGMYRCQTALSTISDPVQLEVHMGWLLLQTTKWLFQEGDPIHLRCHSWQNRPVRKVTYLQNGKGKKYFHENSELLIPKATHNDSGSYFCRGLIGHNNKSSASFRISLGDPGSPSMFPPWHQITFCLLIGLLFAIDTVLYFSVRRGLQSPVADYEEPKIQWSKEPQDK

Key:
Test in all cases: SPR
[1] = biological target: CD3 mG2a (not stated | mouse)
[2] = biological target: CD3 mG2a D265A (not stated | mouse)
[3] = biological target: CD3 mG1 D265A (not stated | mouse)
[4] = biological target: CD3/CD20 mG1KD D265A bispecific antibody (not stated | mouse)
[5] = biological target: CD3/CD20 mG2aH4 bispecific antibody (not stated | mouse)
[6] = biological target: CD3 mG2a (not stated | mouse); remark: listed apart in the source
[7] = biological target: CD3/CD20 mG2aH4 bispecific antibody (not stated | mouse); remark: listed apart in the source

Row | Molecule | Kd [1] [nM] | Kd [6] [nM] | Kd [7] [nM] | further results
1 | Mouse FcRn (from UniProt Q61559 22-365; P01887 21-119) (receptor) | 320 |  |  | Kd [2]: 310 nM; Kd [3]: 640 nM; Kd [4]: 670 nM
2 | Mouse Fc gamma receptor FCGR2 (from UniProt P08101 30-330) | 1570 |  |  | Kd [5]: 1990 nM
3 | B1 |  | 21 | 33 | 
4 | B2 |  | 625 | 1030 | 
5 | B3 |  | 18 | 39 | 
